In series [1] the target is TSP4-N490 (AD-XD1-XD2-XD3 region followed by the D1-D2 head region of TSP4) (bacteriophage CBA120) (UniProt G3M192). The experiment in a line: AUC; sedimentation velocity of single proteins and of mixtures, PBS pH 7.4, 20 °C, absorbance at 280 nm, 30-50 krpm; c(s) by SEDFIT; Kd and koff by Lamm equation modelling with a two-site heterogeneous association model A + B + B = AB + B = ABB (A: TSP4-N335 hexamer, B: partner TSP trimer; two symmetric sites, no cooperativity).

The target of series [2] is TSP4-N253 (AD-XD1-XD2 of TSP4, lacking XD3) (bacteriophage CBA120) (UniProt G3M192). The series is described as above.
The target in series [3] is TSP4-N335, the 335 N-terminal residues of tailspike protein 4 of bacteriophage CBA120 (AD-XD1-XD2-XD3) (bacteriophage CBA120) (UniProt G3M192). The description is as above.
Series [4] concerns the target TSP4 devoid of the AD-XD1 domains, residues 185-1036 (bacteriophage CBA120) (UniProt G3M192). Described as above.
The target of series [5] is TSP4-N181 (AD-XD1 of TSP4) (bacteriophage CBA120) (UniProt G3M192). The description is as above.
In series [6] the target is TSP4-N335, the 335 N-terminal residues of tailspike protein 4 of bacteriophage CBA120 (AD-XD1-XD2-XD3) (bacteriophage CBA120) (UniProt G3M192). The experiment in a line: AUC; sedimentation equilibrium, PBS, 20 °C, 3 or 4 speeds (3000-12,000 rpm); global fit with SEDPHAT; for mixtures the two-site model A + B + B = AB + B = ABB.
For series [7] the target is unchanged. As to the kind of experiment: AUC; sedimentation velocity of single proteins and of mixtures, PBS pH 7.4, 20 °C, absorbance at 280 nm, 30-50 krpm; c(s) by SEDFIT; Kd and koff by Lamm equation modelling with a two-site heterogeneous association model A + B + B = AB + B = ABB (A: TSP4-N335 hexamer, B: partner TSP trimer; two symmetric sites, no cooperativity). The source holds these as a separate data set.

Series [8] deals with the molecule itself. Described as above.
In series [9] the target is TSP4-N181 (AD-XD1 of TSP4) (bacteriophage CBA120) (UniProt G3M192). The series is described as above. The source holds these as a separate data set.
Series [10] deals with TSP4-N490 (AD-XD1-XD2-XD3 region followed by the D1-D2 head region of TSP4) (bacteriophage CBA120) (UniProt G3M192). The description is as above. This is another data set of the same source.
In series [11] the target is TSP4-N335, the 335 N-terminal residues of tailspike protein 4 of bacteriophage CBA120 (AD-XD1-XD2-XD3) (bacteriophage CBA120) (UniProt G3M192). As to the kind of experiment: AUC; sedimentation velocity in 50 mM TRIS pH 8.0 or HEPES pH 7.3, 150 mM NaCl, 0.1-0.5 mM Zn2+ (100 μM ZnCl2 in the legend).
Series [12] deals with the molecule itself. The description is as above.

In general, stoichiometry N refers to the number of molecules, sites or subunits per partner or assembly. For “TSP4-N490 (AD-XD1-XD2-XD3 region followed by the D1-D2 head region of TSP4) (from UniProt G3M192 1-490) (domain or fragment)”, in [1], the stoichiometry N turned out to be 6.
Consider “TSP4-N253 (AD-XD1-XD2 of TSP4, lacking XD3) (from UniProt G3M192 1-253) (domain or fragment)”, for which the stoichiometry N in [2] amounted to 6.
On to “TSP4-N335, the 335 N-terminal residues of tailspike protein 4 of bacteriophage CBA120 (AD-XD1-XD2-XD3) (from UniProt G3M192 1-335) (domain or fragment)”, for which the stoichiometry N was found to be 3 in series [3] (mixed monomer and hexamer sample); 6 in series [3] (purified single-species sample).
Consider “TSP4 devoid of the AD-XD1 domains, residues 185-1036 (from UniProt G3M192 185-1036) (domain or fragment)”, for which, in [4], the stoichiometry N was found to be 3.
Consider “TSP4-N181 (AD-XD1 of TSP4) (from UniProt G3M192 1-181) (domain or fragment)”, for which the stoichiometry N in series [5] amounted to 6.

B1: Tailspike protein 1 of bacteriophage CBA120 (natural protein)
chain: MNEMFSQGGKGSTGILTNKQAVARHFGVKQSEVVYFSVGVDLGGYKVIYDKETQRAYSLPVGIASGTTAVSLSTAAVLVHSAGSVDLGSLAVSREEYVTLPGSFDSGSTLNVKNELLTYTDGKYRWDGILPKTVAPGSTPASTGGVGLGAWISVGDASLRTQLANGDGSLIGIHPQGTLNNVLTVRTPEQYNAVGDGIADDTSKLKEMLSDINNVPETLPDAAAVNSYMEQVAVKIDLTKLYRFTETLYIPPGVSIEIPTSNFFTRECKQGLFYDPVDKNTAAISLMVYRKQPDGSYKLNKDVDYYPTGLDIDNGDAITCARKIDINNLNLITAPGVKVGVKWIGGAGCTTKGLSIGENTGSDITTARLPRVGLLQSASWGSIHENLRILYKTQGAVFIDSNGGAAVNNAYISRLGNTNGELEQAVYKPAGFTEVGDVAVTQFAGSEVKFNSPIIEQASFDFVHAGRDTDSYGLFMVDKPHIESSGGKKKHSFYLINTSSNVTLSGVGLSGQDPDLDSMYFLKNCPETARNVVRGQMPISGVKLVRGTGNYPTLVLDCTNMGSQFQFGEVGDIFYIKDVVGVKADTLYIDPVNGNNYNWGTNGTKPIRELTNIAKICQLFRCKSVYLNAGESVITSNTELPMVVFEGPGSLKANSGSSFLIKAGGTLSLIGLSGISTDGGHMFRVSTVEKVNIHTNCSVNAGAAYVVLSEVQGNIEYRQLFYSVNCSKYIGATAGQTIAGIMVKTATRPTGIDAAPVDGNVSLTYKIIES
notes: Homotrimer by SV (MWcalc of the trimer 248 kDa); also called TSP1
For orientation: Kd means the equilibrium constant for the complex coming apart. For orientation: koff means a measure of how fast the partners let go of each other. On to B1, for which the Kd in series [6] was found to be 0.08 µM; in [7] it was 0.06 µM. For the same molecule, in series [7], the koff worked out at 0.0001 s⁻¹. In addition, the stoichiometry N (TSP1:TSP4-N335 (chains)) in series [7] (one trimer bound per hexamer) was 0.5; in series [7] (two trimers bound per hexamer), 1. In [8], the “stoichiometry N” value turned out to be 3.

B2: Tailspike protein 2 of bacteriophage CBA120 (natural protein, UniProt G3M190 1-921, looked up)
chain: MTRNVEELFGGVITAPHQIPFTYKSNVGGETFLSLPFYPVTGVVTINGGMQVPLDNFEIEGNTLNLGRALSKGDVVYCLFDKILSPEDTAKGIRIYKFQAVGGETEFTPDFTSYGVQSLYIGGEYKTPEIEYSYDSTTGKVSLQTALSAGVWVVAEMSVKQPNISPAFDRSIQEIARSANVKDSEVIVSTDTISLLDGKKVVYDIATQTSYGLPTIPDGSVISSVSAGKLNYNPGDVQVDLLPLEDSFINVINTLGRNDGAKYIGECHSVADLRNTEPTMDGQRIILKQHTAGTLLGGGVFRALIDGTGKTDNNGTVIKTVGGAAWLRVNADRVNPFMFGALGGSNDDTIPVQSCVDSGKATQLTDAHYVSNIQLKYNTSSIYGSGLHYSRLHQLPSATGNCITIKDTCSLIVLDAFGVYGTGAQQGTSFTAGTTGIYVETPSGLSADYPFHTTADPRRDLCISKVHIAGFDEYGLNIDSGNFSVTTDSLLVNHINQVGVRCATTDWTWTNIQVNTCGKQCLVLDGCGNGRIIGGKFIWANWQPYGTVGQFPGITINNSQNMVINGIEVQDCGGNGIEISESYSISMNGLNTNRNGINANNTFYNIVFNKSDAVINGFVGLNYAANSGSGANSSAGNFQFLSNDCSVTINGVVETGYMGINFIGDNNIINPTNSDLSINGLVNYSKTGLQTMNETPTFDGVSTTPVYVSVPSSVGQVNGLRLSQANKDKLLYSRTAGPEGITMAAVIVPTISGAEVFNFMAIGSGFSDTSNSLHLQLVIDASGKQTIALLLGGDGTTQILSGDLPNDLKLQSGVPYHIAIGAKPGYFWWSILNIQTGKRIRRSFRGAYLAVPFNSIFGLTSSLTFFSDSNAGGDACSGVGAKVYVGMFSSENDYVASRYYNLINPVDPTKLISYRILDSSI
notes: Homotrimer by SV (MWcalc of the trimer 297 kDa); also called TSP2
Regarding B2, the results for the Kd in series [6] and in series [7] were 0.075 µM and 0.11 µM, respectively. Moreover, the stoichiometry N (TSP2:TSP4-N181 (chains)) is 0.5 in series [9] (one trimer bound per hexamer) and 1 in series [9] (two trimers bound per hexamer). Moreover, in [7], the koff stood at 0.00025 s⁻¹. The stoichiometry N (TSP2:TSP4-N490 (chains)) in series [10] (one trimer bound per hexamer) was determined as 0.5; in series [10] (two trimers bound per hexamer) it was 1. In [8], the “stoichiometry N” value is 3.

B3: TSP1 head, residues 14-166 (D1-D2 domains and the alpha-helical neck, without the 13 N-terminal amino acids) (domain or fragment, bacteriophage CBA120, UniProt G3M189 14-166, looked up)
chain: GILTNKQAVARHFGVKQSEVVYFSVGVDLGGYKVIYDKETQRAYSLPVGIASGTTAVSLSTAAVLVHSAGSVDLGSLAVSREEYVTLPGSFDSGSTLNVKNELLTYTDGKYRWDGILPKTVAPGSTPASTGGVGLGAWISVGDASLRTQLANG
notes: TSP1 of phage CBA120, D1-D2 head and neck, residues 14-166; Trimerisation was promoted by Zn2+; also called TSP1_(14-166); TSP1-N_(14-166)
B3: the stoichiometry N (TSP1 (14-166):TSP4-N335 (chains)) turned out to be 0.5 in series [11] (one trimer bound per hexamer) and 1 in series [11] (two trimers bound per hexamer). Moreover, the “stoichiometry N” value in [12] was 3.

The values above are taken from paper PMC8825819, “Structure of Escherichia coli O157:H7 bacteriophage CBA120 tailspike protein 4 baseplate anchor and tailspike assembly domains (TSP4-N)” (Scientific Reports, 2022).
